# “Also recorded” adds a separate entry of the source.
# B1: IL-17A: recombinant mouse interleukin 17A (protein)
# chain: AAIIPQSSACPNTEAKDFLQNVKVNLKVFNSLGAKVSSRRPSDYLNRSTSPWTLHRNEDPDRYPSVIWEAQCRHQRCVNAEGKLDHHMNSVLIQQEILVLKREPESCPFTFRVEKMLVGVGCTCVASIVRQAA
# Test system: CD4+ T cell blasts
# Experiment: T cell blast proliferation in co-culture with MSCs (3H-thymidine incorporation)
# Assay type: cell-based, mouse
# Experimental: FIG. 1. is a graph showing that immunosuppression by MSCs is induced by proinflammatory cytokines. Cloned MSCs were supplemented with the indicated combinations of recombinant cytokines (20 ng/ml each) for 8 hours, then co-cultured with CD4+ T cell blasts at a 1:20 ratio (MSC:T cells), and proliferation assessed after an additional 8 hours. Values represent means±SD of five wells from a representative of three experiments with different clones. * p<0.001.
# FIGS. 9A, 9B, 9C, 9D, 9E, 9F and 9G. (FIG. 9A). Cloned MSCs were first treated with the indicated combinations of recombinant cytokines IFNγ, TNFα, IL-17A (2 ng/ml each) for 12 hr, then cocultured with CD4^+ T cell blasts at a 1:20 ratio (MSC:T cells), and proliferation was assessed by 3H-thymidine incorporation after an additional 12 hr. (FIG. 9B). The mRNA expression of IL-17 receptor family members in MSCs or Raw 264.7 (Macrophages) were examined by RT-PCR. NC: No RT. (FIG. 9C). Surface expression of IL-17RA was detected by immunofluoresence or flow cytometry in cloned MSCs. (FIGS. 9D and 9E). MSCs were first treated with IFNγ and TNFα with or without IL-17A (10 ng/ml), IFNγ and TNFα were supplemented at different cytokine concentrations, for 12 hr, and then cocultured with CD4^+ T cell blasts (FIG. 9D) or T cell hybridoma A1.1 cells (FIG. 9E) at a ratio of 1:20 for 12 hr. T cell proliferation was measured by 3H-Tdr incorporation. (FIG. 9F). MSCs were first treated with IFNγ and TNFα (2 ng/ml) with graded concentrations of IL-17A, for 12 hr, and then cocultured with T cell hybridoma A1.1 cells at a ratio of 1:10 for 12 hr. T cell proliferation was measured by 3H-thymidine incorporation. (FIG. 9G). MSCs were cocultured with fresh C57BL/6 splenocytes plus anti-CD3, anti-CD28, and antibodies against IL-17A, at a 1:20 or 1:40 ratio (MSCs:splenocytes), for 48 hr, and then cell proliferation was assessed by 3H-thymidine incorporation. Proliferation values represent means±SEM of three wells from a representative of three experiments.
# T cell blasts were generated from CD4^+ T cells purified by negative selection with […] T cell subset isolation kits (R&D Systems). Cells (1×10^6 cells/ml) were activated by plastic-bound anti-CD3 and soluble anti-CD 28 for 48 hours, then cultured with IL-2 (200 U/ml) alone for 48 hours. All T cell cultures were maintained in RPMI-1640 medium supplemented with 10% heat-inactivated FBS, 2 mM glutamine, 100 U/ml penicillin, 100 μ·g/ml streptomycin, and […] (complete medium).
# Since most reported studies of immunosuppression by MSCs are based on their effects on T cell proliferation and cytokine production, the effect of MSCs was first examined on the IL-2-driven proliferation of T cell blasts. Fresh CD4^+ T cell blasts were generated from splenocytes by activation with anti-CD3 followed by expansion with IL-2 for several days (Devadas, et al. (2006) Immunity 25:237-247; Radvanyi, et al. (1996) Cell Immunol. 170:260-273). T cell blasts were added at a 1:20 ratio (MSC:T cells) along with IL-2 (200 U/ml). Cell proliferation was assessed by ^3H-Tdr incorporation after 8 hours. […] MSCs also had no effect on the proliferation of T hybridoma A1.1 cells. These T cells blasts and T hybridoma cells, however, produce no cytokines unless reactivated through the TCR (Fotedar, et al. (1985) J. Immunol. 135(5):3028-33). Thus, in the absence of T cell cytokines, MSCs were unable to suppress T cell proliferation.
# The effect of IFNγ was then tested directly by adding isolated recombinant IFNγ (20 ng/ml) instead of activated splenocyte supernatant to the mixed co-cultures of MSC+ T cell blasts or MSC+A1.1 cells. […] Therefore, induction of the immunosuppressive function of MSCs by anti-CD3-activated splenocyte supernatant may be due to IFNγ acting in concert with either TNFα; IL-1α; or IL-1β on the MSCs. […]
molecule,measurement,setting,value
B1,T cell proliferation after MSC treatment with low-concentration cytokines,"2 ng/ml each, 12 hr, then 1:20 MSC:T cells",cannot induce immunosuppression; also recorded: markedly enhanced
same,IFNγ and TNFα concentrations (as low as) at which IL-17A enhances the immunosuppressive effect of MSCs,"10 ng/ml IL-17A, CD4+ T cell blasts or A1.1",1 to 2 ng/mL
same,immunosuppression at higher concentrations of IFNγ and TNFα,IFNγ and TNFα 10-20 ng/ml,still improved immunosuppression
